These results are taken from PMC6028955.

The assay deals with histone H2A–H2B (from chicken blood histone core octamers) (chicken) (UniProt P02263). In words: ITC; 25 °C, 20 mM HEPES pH 7.5, 200 mM NaCl, 1 mM DTT; histones in the cell at 20–30 μM, SSRP1 variants in the syringe at 10 times that concentration.

DdSSRP1 containing only the ID1 region (residues 479–527), sequence (Q54G78 479-527): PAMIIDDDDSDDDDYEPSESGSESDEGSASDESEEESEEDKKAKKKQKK
full-length DdSSRP1, sequence (Q54G78 whole entry): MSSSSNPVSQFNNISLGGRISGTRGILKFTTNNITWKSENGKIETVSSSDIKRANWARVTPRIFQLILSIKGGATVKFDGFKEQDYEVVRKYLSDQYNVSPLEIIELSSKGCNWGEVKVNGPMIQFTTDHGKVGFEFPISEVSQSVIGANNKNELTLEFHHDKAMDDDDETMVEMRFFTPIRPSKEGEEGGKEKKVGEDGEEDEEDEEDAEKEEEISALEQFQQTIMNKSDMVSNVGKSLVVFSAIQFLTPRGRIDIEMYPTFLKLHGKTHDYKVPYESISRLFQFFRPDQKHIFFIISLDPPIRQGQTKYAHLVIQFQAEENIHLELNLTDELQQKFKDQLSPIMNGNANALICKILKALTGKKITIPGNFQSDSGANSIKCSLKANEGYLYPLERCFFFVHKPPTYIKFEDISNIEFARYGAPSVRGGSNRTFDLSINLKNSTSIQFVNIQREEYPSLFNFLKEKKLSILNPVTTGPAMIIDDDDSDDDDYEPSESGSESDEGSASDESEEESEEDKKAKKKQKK

In the case of “DdSSRP1 containing only the ID1 region (residues 479–527) (from UniProt Q54G78 479-527) (domain or fragment)”, the Kd came out at 190 nM.

The substance “full-length DdSSRP1 (from UniProt Q54G78 1-527) (natural protein)” yielded a Kd of 310 nM.
